Measured values reported in the DeepSol protein solubility set.

experiment: soluble on expression in E. coli; label from the status in PepcDB or PDB records

Sequence | soluble on expression in E. coli
MGSDKIHHHHHHMKQEVKGVQGQEYEIGLTVGDNRSDIFTFVISPESQIRKWEYVYIKAGETNLLGRIEDLLSKSDLLNDRMDYESVKKYTTSNIKDNVDICVVKIIGAVKDGIISRSRYLIRPGQPVFRATKEMLESIFKFDDQRSLEIGYLADQPDVKIFANINGLRRHLSIIAQTGAGKSHTAGVLMEELLKKGASIIVLDPHADYVLMKNSDKAIYRDNIKVFRTPMSTGRYTAKLGKVDEFTIKFQDLNDEEVREIMGIHENFVNQSKIVKDVMEKLTGRKDVDEFIQKSEQIDTEKRIAARIKYLKKIKAIFGDKTTDVSEYLAPSRMSVIDLSGLDQSLANYFAYKVISQAYDAKVTGSFEYPVFLFIEEAHNFAPPMKVKGSGVSQMLYDTIKKIAAEGRKFGIFLVIITQRPGKIDQDVLSQCNSQIILRITNPSDQKAILESSENISESLMSDLPSLDVGEAIIVGEIVKMPVIAKIRQRETEEGGLDVDIVEMLQKARMEAEKRNDPRAIVENVKKLME | not soluble
MPYKEKDIEKKYFSIGEVSAMFKVAPSLIRFWETEFDIFKPQKNRRGNRQFTKEDIENFRLIYNLVKERGYTLQGAKEMLKVDRHKSKDKMELLDSLQKVRDFLVDLKKQME | not soluble
MENFAVIDLGSNSCRMTITQIQEDGSYAVTHRLKEMVRLSENENATDTPTLQAEAIDRTIAALKSFAAVYKDLPNLTIKAVATAATRKASNQKKFLKRVKNDVGLDIEVIPGTTEAYYDYLGVVNTLPTTNCVMVDTGGGSCELVLIVNGQAKDLISLPIGAVSLSEKFGLNDQVTASQLFKTMTFVDKIFNSVWWLRNGLNLPLVCLGGSNRTLAKINRRKCNILNFEDIHGYRLRDNAIYDTFNTVISQDAAGRAAIPGLAKDRADIIVGGMIPAISLMRFLDSDRMIFSQNGLREGILFEHLTALAEQSAKVSELEHHHHHH | not soluble
DETIHLERGENLFEIHINKVTFSSEVLQASGDKEPVTFCTYAFYDFELQTTPVVRGLHPEYNFTSQYLVHVNDLFLQYIQKNTITLEVHQAYSTEYETIAACQLKFHEILEKSGRIFCTASLIGTKGDIPNFGTVEYWFRLRV | soluble
MTMDKSELVQKAKLAEQAERYDDMAAAMKAVTEQGHELSNEERNLLSVAYKNVVGARRSSWRVISSIEQKTERNEKKQQMGKEYREKIEAELQDICNDVLELLDKYLIPNATQPESKVFYLKMKGDYFRYLSEVASGDNKQTTVSNSQQAYQEAFEISKKEMQPTHPIRLGLALNFSVFYYEILNSPEKACSLAKTAFDEAIAELDTLNEESYKDSTLIMQLLRDNLTLWTSENQGDEGENLYFQ | soluble
MNQLQAEINAANAVFPVSDSTKIPKVSQKLFGLLGDGFFPQLHPKGLKIADNIAALFDQYNLKSIALKNFDLNLERKNDIVIQGKVCYSFSIK | not soluble
MGSDKIHHHHHHMKTPWLVNGKLANLYLLYGTERHLLEEWEREIVKAALPDGERFDYMKIDLNDQPLDAVLDEAETVPFLSDYRVVIAKPATFLTGAKDKKTHNVERLAEYIVQPADYAVVVLIVEAEKLDERKTIVKRLKDRAVILEAKKPTTEELFRFVMDAVNDKGYRMERPAIERLIFLTGEMWATLTRELDKLMLYAGDHPTIELEDVNLLVPRTLEDNVFQLTDYLMKRQLEPAIRLIRDLEKQGQEVLALLGLMARQYRMMLLSKRLAEQGYGERQIASKVGAHPYAIKLALQAGKRFTFAQLEQALVAITTTDEGMKTGRGDKRILFDALIVRLATL | not soluble
MPAILETNPIAIRACILYEVRQKRPIFESFKNFCNAFGNDFMEYREFERWFYRFYHGNEDLDYDMSREPKTASLSELPIEILFKIVENLNFLDRLLLRNVSPCFRSIAEDHVNEVTNISVTSIPNHVHVCFYHESDYTDIICKRVDDDCVITKMSQYEDSKDWKIEGVSHVTVALNYLSRVLKSPKLKLEKLRLDFLEHNKEDTQCMEELLTVLENSEPHVLNIEFEGLNFHETSSVLKNLKNVEEIQLSMYSIQELSGIEKLVELEQWKTAKTLDISSHEDIEMDIKDLLHFQSIDVRLKSFSVQDAVKVKETLELRTSDFRSGTFRVLNTDTRKIGKVFNPKYTDAANNTFNFKTKNSSFEITMCSKEIYVKRKL | not soluble
MAGYVGDVAIAYDRDLGHVLFEQYASDIARRTAGKPVRDVLEVASGTGIVTRQLRNVLPGDAQLTAIDISDSMMEVARTKFLPHEQVTFQVANAVALPFDDRAFDTVVCQFGVMFFDKDKAFQETHRVLRQGGRYLFSVWDSRDYNPYASLTFEVMKQFFPSDPPRFLESTVSSFEIDPVKERLIRAGFEQISISVQRRIYDIPDIRAFARGLIFSPIINEIRERGEVDPDDIVEALVKIFIGEYGSNPTRFPMQAILFETEKPLEHHHHHH | not soluble
MSRFVQDLSKAMSQDGASQFQEVILQELELSVKKELEKILTTAASHEFEHTKKDLDGFRKLFHRFLQEKGPSVDWGKIQRPPEDSIQPYEKIKARGLPDNISSVLNKLVVVKLNGGLGTSMGCKGPKSLIGVRNENTFLDLTVQQIEHLNKTYNTDVPLVLMNSFNTDEDTKKILQKYNHCRVKIYTFNQSRYPRINKESLLPIAKDVSYSGENTEAWYPPGHGDIYASFYNSGLLDTFIEEGKEYIFVSNIDNLGATVDLYILNHLMNPPNGKRCEFVMEVTNKTRADVKGGTLTQYEGKLRLVEIAQVPKAHVDEFKSVSKFKIFNTNNLWISLGAVKRLQEQNAIDMEIIVNPKTLDGGLNVIQLETAVGAAIKSFENSLGINVPRSRFLPVKTTSDLLLVMSNLYSLNAGSLTMSEKREFPTVPLVKLGSSFTKVQDYLRRFESIPDMLELDHLTVSGDVTFGKNVSLKGTVIIIANHGDRIDIPPGAVLENKIVSGNLRILDH | soluble
ITDNTLIRNDTGDGDAVYDLVLNADGLDEDYSYQLKVMEEQPSDKQANELFTQAKKEIDDSFCEENQSVEQVRGHVIMKDAYASGAVEAEWTLSDYDVVDINGDVNQDAFEEADDEQGKLISASVELSCGEHRQLYDFSFVVFPDELEAGERLIKDINRHIDSEMSKTGTKKLTLPDEVDGVKLSWSQEKSNTAAKIAMLEVVVIVLLVLEKKEKKKTAQKERNIQLQLEYPEIVSKMAVLMGSGMTVEQAWNRITARYLDERKNNDKNIMPAYEEMLVTEREISDGVTGRKAYAGFAERVKLPCYQKLVRIILQSIHKGSKGVCEMLEKESEDAFDERRLLALKLGEEAGTKM | not soluble
MGSDKIHHHHHHMKSYLTPLALLVSSVFSTVAYAETQLFVTTSSTQDAPLHIVYPTGIRIGQAVQDGLQQLPLYNKTNNKEVMPIYWLGAALVDLENTAVLETKRQQVLSQLAQMGEATNDSRYITKLAQLAQFLRGIKLGQRVMQPLDIDAIRITESYNAIIEGKYQLVLPPRPSTITLVGAVTQTGNMPWQSQTSSKDYLKQAGLLENAETSFVWIIQPDGNAIRQPIAYWNYQAQDIAPGATLFVEFSSLFDGYANLNENIIELLKNRTL | not soluble
MEGGFGSDFGGSGSGKLDPGLIMEQVKVQIAVANAQELLQRMTDKCFRKCIGKPGGSLDNSEQKCIAMCMDRYMDAWNTVSRAYNSRLQRERANM | not soluble
NRWGSPWAVKPEDKAKYDAIFDSLSPVNGFLSGDKVKPVLLNSKLPVDILGRVWELSDIDHDGMLDRDEFAVAMFLVYCALEKEPVPMSLPPALVPPSKRKTWLEI | soluble
MSLSIKNIKRIITAWKPSTFETYKKTFEKYGGSVNMHPDVVSYFMIHHDWKFDFFHYEKDGDIKGSYFLCNGKQIGIMARRSYPLSSDEVLIPFSPHARCFFPDKTNKLSIINKQNIINATWKIARKKQNCIIKESFSPKFEKTRRNEIQRFIRNGGEIKCISQLSDKEISSSYISLFHSRFGGTLPCYEYDNLLMFISHLRELMFGHVLFWDNKPCAIDIVLKSESSCNVYYDVPNGAVLNDENCMKLSPGSVLMWLNIDKARRYCQDNNKKMIYSIGAFRPEWKYKLLWSVPCKVGKCLCEGHHHHHH | soluble
MSEIDLTSEYSCSKHSKNPETAGEEFDVKVEKIYEDLKNSSIERQEDIPYFPNGEMTRIDIWGPETAEKVFIMIHGGYWLIGNRKKCLAVVHVAQKLGYTVVSVGYDYANKDHVLSKTIVEALEGVQFALKKFKNAKKIVIGGHSVGAHLAFQAVTRIHDPRISGAYLSAGIYKIQELTSTTYGHDLGLTSEEAETCSCDYELMKHVRFPVLIACCRRESPKLYQQNQDFSSQVANAQYKV | not soluble
MGSDKIHHHHHHMVVESGFTAAQLPWLEGPRQAFLAQLTRQKMPHAQLVGIDSAYGGELLSVFMARAAMCLQPTPAGACGFCKSCQLFDAGNHPDFYHIAADGNQIKVDQIRELCTRLTATAQQSGMRVAIIHHSERLNSAAANALLKTLEEPGKDTLLILQSDTPARLMATVGSRCQRIPFVVPSREIIKNWLAQQCDIKEDVTWCLSVVGGPLQLAESLQSEGGQQSRYQSLLQFRKDWAQSLSSGHLCASLLTISEQQIIDVLKVLYLLIRQVLLKNSHQDAFIHAQLGNLAAKIMGMCHSLSTMPSVNYLALCQSYVLEYREITNK | not soluble
MAHHHHHHMASSALDEMKEQMLRRWKEDQKKIDDLRKKHGHEKLCDATIDAVYGGMRGITGLVYEPSLLDPAEGIRFRGLTILECQEMLPKAPGGKEPLPEAMFWLLMTGEVPTEEQVRGLNAELHRRADPEAIAAAQKAIAALPRNAHPMTAFSVGVLALQSYSKFAAAYAAGKSNKKTYWEYALEDSLDMLARTPAVVAMICNRETKGQVELAAPSNSDLDWAANFAKMMGYQDEEFWECMRLYLSVHADHEGGNVSAHTTTLVASALSDPYLAFSAGLNGLAGPLHGLANQEVLNYLLSMQERVKADGVNMHDEAALEKALSNYTWELLNSGQVVPGYGHAVLRKVDPRYTCLRNFCLRHKFDDDLFKLVNTIYLIMPGILKEHGKTKNPYPNVDAHSGVLLQHYGMTNQNCYPVLFGLSRQMGVLAGVVWDRLQGRPLERPKSITTEMLAKKYLCNSL | not soluble
MKIGILTQPLSNNYGGILQALALQTVLRSMGHETVILSREYDYPPFRLCLMRILSVLKCIVRKYILRDNRAIIANPFLHFYATDKTQVYDDNEIQAFIRKNLKCSVRLQSTWILKIYVRLHHFDAFLVGSDQVWRESFSPCITNFFLDFLSQKCRAKRIAYGASFGVEQNPISVASLNQCVELAKRFDAISVREQSGVKIMKETFHLSACQVLDPTLLLPVDFYRSFMQKSDMDSSGLVSYLLDGNEEKRNIIAVAREQLQLSQTELLLFPSRYKDEVPRFSSVSSWLSAFANADFVVTDSFHGCVFSIIFRKPFVVISNSGRGNERFFSLLDTFGLNDRLVFSYEEFVDKEEILLIEQDYTEVERKYENLKVKSLEFLFQALNEN | not soluble
MKTPRLLQYLAYPQKITGPIIEAELRDVAIGELCEIRRGWHQKQVVARAQVVGLQRERTVLSLIGNAQGLSRDVVLYPTGRALSAWVGYSVLGAVLDPTGKIVERFTPEVAPISEERVIDVAPPSYASRVGVREPLITGVRAIDGLLTCGVGQRMGIFASAGCGKTMLMHMLIEQTEADVFVIGLIGERGREVTEFVDMLRASHKKEKCVLVFATSDFPSVDRCNAAQLATTVAEYFRDQGKRVVLFIDSMTRYARALRDVALASGERPARRGYPASVFDNLPRLLERPGATSEGSITAFYTVLLESEEEADPMADEIRSILDGHLYLSRKLAGQGHYPAIDVLKSVSRVFGQVTTPTHAEQASAVRKLMTRLEELQLFIDLGEYRPGENIDNDRAMQMRDSLKAWLCQPVAQYSSFDDTLSGMNAFADQN | not soluble
